{"source": "patent US20240412835", "test_system": "PD-1 TALEN (left/right pair, split FokI) (synthetic construct)", "assay": "cell_activity", "settings": "median of 6 TIL lots (38.09-74.73), NGS; document lists two candidate PD-1 TALEN pairs and does not state which was used", "data": [{"substance": "PDCD1 exon 2 target site", "values": [{"measurement": "activity", "result": 54, "unit": "% indels"}]}]}
